Experimental data from patent US12312412 (dated 2025).
Substitutions are numbered along the chain they refer to. In names and notes the source's numbering stands.

B1: MA 10-H3 CC (M9L) (antibody, V domains shown)
VH: EVQLVESGGGLVQPGGSLRLSCAASGFTFSNAWMSWVRQAPGKCLEWVGRIRSRPYGGTTDYAAPVKGRFTISRDDSKNTLYLQMNSLKTEDTAVYYCTTPSYSGSYYNYFSVMDVWGQGTTVTVSS
VL: DIQMTQSPSSLSASVGDRVTITCRTSQSISSYLNWYQQKPGRAPKLLIFAASSLQGGVPSRFSGSGSGTDFTLTISSLQPEDFATYYCQQTYSSPFTFGCGTKLEIK
B2: MA 03-H12_AS CC (K5A) (antibody, V domains shown)
VH: EVQLLESGGGLVQPGGSLRLSCAASGFTFSSHAMSWVRQAPGKCLEWVSAISGSGGGTYNAASVKGRFTISRDNSKNTLYLQMNSLRAEDTAAYYCVTGKGVHLGFDYWGQGTLVTVSS
VL: SYVLTQPPSVSVAPGQTARITCGGNNIGSKSVHWYQQKPGQAPVMVVYDDNDRPSGIPERFSGSNFGNTATLTISRVEAGDEADYYCQVWDYVTPRWVFGCGTKLTVL
B3: MA 03-D12_AS CC (L6A) (antibody, V domains shown)
VH: B2 VH with N60Y, G66A, A93V, V97A
VL: B2 VL with F66S, V93L, T94R, P95Q, R96Q, W97Q
B4: MA 03-C7_AS CC (G2H) (antibody, V domains shown)
VH: B2 VH with N60Y, A93V, V97A
VL: B2 VL with F66S, V93E, T94R, R96A, W97M
B5: MA 03-G11_AS CC (O4R) (antibody, V domains shown)
VH: B2 VH with Q13K, N60Y, A93V, V97A, G105N
VL: B2 VL with M45L, T73I, V93L, T94L, R96G, W97Q
B6: MA 09-H7 CC (T3S) (antibody, V domains shown)
VH: QITLKESGPALVKPTQTLTLTCTFSGFSFTTHKMGVDWIRQPPGKCLEWLALIYWNDDKRYSPSLQSRLTITKDTSKNQVVLTMTNMDPVDTATYYCAYRRYNWNYENWFDPWGQGTLVTVSS
VL: DIQMTQSPSSLSASVGDRVTITCQASQDISNYLNWYQQKPGKAPKLLIYAASSLQSGVPSRFSGSGSGTDFTLTISSLQPEDFATYYCQQSYFPVVEFGCGTKVEIK

Each binder was assayed against MAGEB2 peptide … / HLA-A*02:01 / b2m (human) (assay: FACS).

| Kd [nM] | Binder |
| --- | --- |
| 0.7 | B1 |
| 1.1 | B2 |
| 0.7 | B3 |
| 1.5 | B4 |
| 1.3 | B5 |
| 0.8 | B6 |
